Target: β1 integrin (human (endogenous in EA.hy926), UniProt P05556 21-798)
Experiment: co-IP

Sequence of β1 integrin (P05556 21-798): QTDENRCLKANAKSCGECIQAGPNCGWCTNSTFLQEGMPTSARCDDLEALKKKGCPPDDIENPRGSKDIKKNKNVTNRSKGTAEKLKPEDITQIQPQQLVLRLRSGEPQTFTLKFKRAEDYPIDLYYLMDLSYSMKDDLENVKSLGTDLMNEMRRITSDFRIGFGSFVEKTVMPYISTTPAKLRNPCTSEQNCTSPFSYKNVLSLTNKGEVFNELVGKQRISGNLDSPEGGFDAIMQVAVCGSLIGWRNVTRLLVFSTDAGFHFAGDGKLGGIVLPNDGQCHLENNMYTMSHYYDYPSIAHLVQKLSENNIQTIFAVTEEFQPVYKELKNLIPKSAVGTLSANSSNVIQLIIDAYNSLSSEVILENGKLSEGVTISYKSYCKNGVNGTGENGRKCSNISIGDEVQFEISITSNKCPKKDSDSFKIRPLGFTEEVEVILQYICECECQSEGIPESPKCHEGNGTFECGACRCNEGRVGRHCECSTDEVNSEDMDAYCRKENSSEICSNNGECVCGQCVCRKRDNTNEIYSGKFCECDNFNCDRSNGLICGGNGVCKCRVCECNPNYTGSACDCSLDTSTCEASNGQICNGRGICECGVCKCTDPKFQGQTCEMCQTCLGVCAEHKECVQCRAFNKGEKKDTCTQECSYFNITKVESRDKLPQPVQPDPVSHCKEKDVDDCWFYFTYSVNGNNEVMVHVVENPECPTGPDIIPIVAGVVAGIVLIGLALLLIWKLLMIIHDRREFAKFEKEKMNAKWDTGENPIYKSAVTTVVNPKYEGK

normalized CB1R ratio without versus with anandamide (2 mM Ca2+): 1.03 ± 0.04
B1: cannabinoid 1 receptor (receptor, human (endogenous in EA.hy926), UniProt P21554 1-472, looked up)
chain: MKSILDGLADTTFRTITTDLLYVGSNDIQYEDIKGDMASKLGYFPQKFPLTSFRGSPFQEKMTAGDNPQLVPADQVNITEFYNKSLSSFKENEENIQCGENFMDIECFMVLNPSQQLAIAVLSLTLGTFTVLENLLVLCVILHSRSLRCRPSYHFIGSLAVADLLGSVIFVYSFIDFHVFHRKDSRNVFLFKLGGVTASFTASVGSLFLTAIDRYISIHRPLAYKRIVTRPKAVVAFCLMWTIAIVIAVLPLLGWNCEKLQSVCSDIFPHIDETYLMFWIGVTSVLLLFIVYAYMYILWKAHSHAVRMIQRGTQKSIIIHTSEDGKVQVTRPDQARMDIRLAKTLVLILVVLIICWGPLLAIMVYDVFGKMNKLIKTVFAFCSMLCLLNSTVNPIIYALRSKDLRHAFRSMFPSCEGTAQPLDNSMGDSDCLHKHANNAASVHRAAESCIKSTVKIAKVTMSVSTDTSAEAL
